In this assay the target is Porcine skeletal actin, pyrene-labeled (porcine) (UniProt P68137). Put plainly: stopped-flow fluorescence.

As to “Cardiac myosin from porcine left ventricular tissue (from UniProt P79293 1-1935) (complex)”, the kon turned out to be 0.35 M⁻¹ s⁻¹.
